Assay [1] has as its target recombinant soluble CD4 engineered with a deletion in the transmembrane region but retaining the cytoplasmic tail (UniProt P01730). Nature of the assay: ELISA; as a1, but HIVBaL treated beforehand with acidified media at pH 3.8 (HCl adjusted) for 60 min at 37°C. Background: In an ELISA, binding on a coated surface is turned into a signal by an enzyme label.
The target is the same in assay [2]. Description: ELISA; as a1, but HIVBaL treated beforehand with 1% (w/w) (110 mM) L-lactic acid at pH 3.8 for 60 min at 37°C.

For “virion-associated trimeric gp120 envelope glycoprotein of HIV-1 BaL (on HIVBaL virions) (natural protein)”, the fold reduction in rCD4 binding relative to untreated HIV-1 in assay [1] and in assay [2] was 2 fold each time.

These data come from paper PMC12527216.
